{"source": "paper PMC9812585", "key": {"[1]": {"molecular_target": "human GC-A (membrane guanylate cyclase A, natriuretic peptide receptor) (human) (UniProt P16066)", "sequence (P16066 33-1061)": "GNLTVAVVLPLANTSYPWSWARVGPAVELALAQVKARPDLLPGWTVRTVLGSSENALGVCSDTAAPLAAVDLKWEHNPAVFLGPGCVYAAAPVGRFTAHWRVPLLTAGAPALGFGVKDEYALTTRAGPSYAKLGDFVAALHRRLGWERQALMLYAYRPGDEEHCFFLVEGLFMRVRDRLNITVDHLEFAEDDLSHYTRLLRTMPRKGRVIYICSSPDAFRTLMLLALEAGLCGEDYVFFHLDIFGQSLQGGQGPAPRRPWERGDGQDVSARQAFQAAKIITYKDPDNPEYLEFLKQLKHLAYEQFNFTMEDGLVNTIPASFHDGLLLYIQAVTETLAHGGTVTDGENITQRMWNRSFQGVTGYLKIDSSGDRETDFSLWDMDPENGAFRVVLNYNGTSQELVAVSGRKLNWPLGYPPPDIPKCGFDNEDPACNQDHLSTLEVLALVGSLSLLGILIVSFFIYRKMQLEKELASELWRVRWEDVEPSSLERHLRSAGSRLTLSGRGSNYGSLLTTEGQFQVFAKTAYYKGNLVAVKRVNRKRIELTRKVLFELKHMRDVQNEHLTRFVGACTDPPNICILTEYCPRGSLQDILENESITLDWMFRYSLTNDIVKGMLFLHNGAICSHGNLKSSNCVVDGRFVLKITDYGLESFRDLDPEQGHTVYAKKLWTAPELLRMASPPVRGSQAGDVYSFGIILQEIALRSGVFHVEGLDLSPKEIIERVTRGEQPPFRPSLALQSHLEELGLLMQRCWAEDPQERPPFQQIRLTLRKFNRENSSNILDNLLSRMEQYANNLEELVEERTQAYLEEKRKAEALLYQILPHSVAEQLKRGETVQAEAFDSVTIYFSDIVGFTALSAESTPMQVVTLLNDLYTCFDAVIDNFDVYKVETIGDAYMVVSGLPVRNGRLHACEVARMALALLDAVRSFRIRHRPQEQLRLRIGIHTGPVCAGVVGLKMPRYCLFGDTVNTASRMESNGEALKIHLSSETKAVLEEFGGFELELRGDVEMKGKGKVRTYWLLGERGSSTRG"}, "[2]": {"molecular_target": "human GC-B (membrane guanylate cyclase B, natriuretic peptide receptor) (human) (UniProt P20594)", "sequence (P20594 23-1047)": "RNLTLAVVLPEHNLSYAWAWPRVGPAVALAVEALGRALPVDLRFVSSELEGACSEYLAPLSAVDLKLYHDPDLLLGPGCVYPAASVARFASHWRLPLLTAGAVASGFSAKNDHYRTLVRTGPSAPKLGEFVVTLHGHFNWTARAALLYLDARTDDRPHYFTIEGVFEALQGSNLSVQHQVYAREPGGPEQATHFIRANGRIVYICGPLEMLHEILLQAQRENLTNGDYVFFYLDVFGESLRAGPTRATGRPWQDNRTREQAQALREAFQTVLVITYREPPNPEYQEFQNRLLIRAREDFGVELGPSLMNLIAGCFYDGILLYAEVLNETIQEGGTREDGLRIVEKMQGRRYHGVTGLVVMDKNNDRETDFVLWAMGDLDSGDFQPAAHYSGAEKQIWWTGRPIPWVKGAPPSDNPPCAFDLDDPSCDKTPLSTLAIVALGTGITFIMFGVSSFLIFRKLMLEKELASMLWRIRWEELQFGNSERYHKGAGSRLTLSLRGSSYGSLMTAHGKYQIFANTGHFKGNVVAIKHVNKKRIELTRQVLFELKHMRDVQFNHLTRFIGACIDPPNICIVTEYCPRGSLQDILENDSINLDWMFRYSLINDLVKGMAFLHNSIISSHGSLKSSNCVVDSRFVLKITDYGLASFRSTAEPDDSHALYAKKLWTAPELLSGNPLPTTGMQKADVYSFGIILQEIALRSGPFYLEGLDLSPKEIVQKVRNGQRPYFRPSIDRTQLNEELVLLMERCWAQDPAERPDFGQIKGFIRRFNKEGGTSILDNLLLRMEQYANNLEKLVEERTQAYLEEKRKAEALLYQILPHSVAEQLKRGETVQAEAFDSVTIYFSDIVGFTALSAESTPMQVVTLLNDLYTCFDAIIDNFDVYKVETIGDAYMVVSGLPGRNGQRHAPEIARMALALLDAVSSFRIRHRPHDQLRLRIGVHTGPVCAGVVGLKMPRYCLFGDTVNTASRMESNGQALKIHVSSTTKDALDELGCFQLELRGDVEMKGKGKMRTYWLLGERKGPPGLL"}, "[3]": {"molecular_target": "human GC-B (membrane guanylate cyclase B, natriuretic peptide receptor) (human) (UniProt P20594)", "remark": "listed apart in the source"}, "[4]": {"molecular_target": "human GC-A (membrane guanylate cyclase A, natriuretic peptide receptor) (human) (UniProt P16066)", "remark": "listed apart in the source"}}}
{"substance": "human atrial natriuretic factor (1-28) (peptide)", "values": [{"measurement": "stimulation of cGMP production in HEK293T cell membranes with increasing ANP, saturation above 4 μM", "setting": "[1]", "result": 10, "unit": "fold"}]}
{"substance": "human c-type natriuretic peptide (1-53)", "values": [{"measurement": "stimulation of cGMP production in HEK293T cell membranes with increasing CNP, saturation above 4 μM", "setting": "[2]", "result": 10, "unit": "fold"}]}
{"substance": "retinal degeneration protein 3 (RD3) (from UniProt Q7Z3Z2 1-195) (natural protein)", "values": [{"measurement": "IC50 of inhibition of guanylate cyclase activity (cGMP synthesis) of GC-B in HEK293T cell membranes activated by 2 μM CNP, increasing RD3; inhibition not complete at 0.5-1 μM RD3", "setting": "[3]", "result": 29, "unit": "nM"}, {"measurement": "IC50 of inhibition of guanylate cyclase activity (cGMP synthesis) of GC-A in HEK293T cell membranes activated by 2 μM ANP, increasing RD3; inhibition not complete at 0.5-1 μM RD3", "setting": "[4]", "result": 24, "unit": "nM"}]}
